The target in assay [1] is human γ-thrombin (human) (UniProt P00734). The assay can be described thus: inhibition of γ-thrombin hydrolysis of Sar-Pro-Arg-paranitroanilide; Ki from Ki,app by the procedure of Bieth.
Assay [2] has as its target human α-thrombin (human) (UniProt P00734). The assay is described as follows: inhibition of α-thrombin hydrolysis of Sar-Pro-Arg-paranitroanilide; Ki from Ki,app by the procedure of Bieth.
Assay [3] shares this target. The assay can be described thus: cell-based or functional assay.
Assay [4] concerns the target recombinant extracellular domain of human PAR4 (rPAR4EC), Gly18-Arg78 (human) (UniProt Q96RI0). The assay is described as follows: displacement of 15 µM RPPGFK-biotin from plate-bound rPAR4EC; peptide at 30 µM.
Assay [5] shares this target. The assay can be described thus: displacement of 15 µM RPPGFK-biotin from plate-bound rPAR4EC; peptide at 300 µM.
The target is the same in assay [6]. The assay is described as follows: displacement of 15 µM RPPGFK-biotin from plate-bound rPAR4EC; peptide at 1000 µM.

Take “rOicPaF(p-I) (D-Arg-Oic-Pro-D-Ala-Phe(p-I)) (peptide)”: in assay [1], the Ki stood at 59.2 µM.

With “rOicPsF(p-Me) (D-Arg-Oic-Pro-D-Ser-Phe(p-Me)) (peptide)”, the Ki in assay [1] was 42.2 µM.

Substance “rOicPaF(p-NO2) (D-Arg-Oic-Pro-D-Ala-Phe(p-NO2)) (peptide)” displayed a Ki in assay [1] of 87.9 µM. In assay [2], the Ki was found to be 10.6 µM. In assay [3], this substance returned a peptide concentration giving significant prolongation (p<0.05) of the APTT of normal human plasma of 50 µM, a peptide concentration giving significant prolongation (p<0.05) of the PT of normal human plasma of 6.25 µM and a peptide concentration giving significant prolongation (p<0.05) of the TCT of normal human plasma of 1.56 µM.

Regarding “rOicPaF(p-Br) (D-Arg-Oic-Pro-D-Ala-Phe(p-Br)) (peptide)”, in assay [1], the Ki came to 48.7 µM.

In turn, “rOicPaF(p-Me) (D-Arg-Oic-Pro-D-Ala-Phe(p-Me)) (peptide)” gave a Ki in assay [1] of 54.3 µM. Further, the % of RPPGFK-biotin displaced in assay [4] came to 19%; in assay [5], 49%; in assay [6], 63%.

The record behind these values is patent US7879792.
